Results published in article PMC8163081 (Science Advances, 2021).
Each block holds one molecule with its values, some of them ahead of it.

What was measured:
α-actinin-2 (human) = α-actinin-2 (human) (UniProt P35609); assay: ITC
hd-α-actinin-2 (human) [1] = target: hd-α-actinin-2 (human) (UniProt P35609); assay: SEC-MALS
hd-α-actinin-2 (human) [2] = target: hd-α-actinin-2 (human) (UniProt P35609); assay: ITC
α-actinin-2 [3] = target: T1, α-actinin-2 (human, UniProt P35609 1-894); assay: SEC-MALS
[4] = target: α-actinin-2-yellow fluorescent protein (YFP) (human, UniProt P35609 1-894); assay: FRET or BRET
[5] = target: human (nonmuscle) α-actinin-1 (human, UniProt P12814 1-892); assay: SEC-MALS
rod-α-actinin-2 = rod-α-actinin-2 (human, UniProt P35609 274-746); assay: SEC-MALS
α-actinin-2 [6] = target: T1, α-actinin-2; assay: ITC
α-actinin-2 [7] = target: T1, α-actinin-2; assay: peptide or protein array

T1 sequence (P35609 whole entry): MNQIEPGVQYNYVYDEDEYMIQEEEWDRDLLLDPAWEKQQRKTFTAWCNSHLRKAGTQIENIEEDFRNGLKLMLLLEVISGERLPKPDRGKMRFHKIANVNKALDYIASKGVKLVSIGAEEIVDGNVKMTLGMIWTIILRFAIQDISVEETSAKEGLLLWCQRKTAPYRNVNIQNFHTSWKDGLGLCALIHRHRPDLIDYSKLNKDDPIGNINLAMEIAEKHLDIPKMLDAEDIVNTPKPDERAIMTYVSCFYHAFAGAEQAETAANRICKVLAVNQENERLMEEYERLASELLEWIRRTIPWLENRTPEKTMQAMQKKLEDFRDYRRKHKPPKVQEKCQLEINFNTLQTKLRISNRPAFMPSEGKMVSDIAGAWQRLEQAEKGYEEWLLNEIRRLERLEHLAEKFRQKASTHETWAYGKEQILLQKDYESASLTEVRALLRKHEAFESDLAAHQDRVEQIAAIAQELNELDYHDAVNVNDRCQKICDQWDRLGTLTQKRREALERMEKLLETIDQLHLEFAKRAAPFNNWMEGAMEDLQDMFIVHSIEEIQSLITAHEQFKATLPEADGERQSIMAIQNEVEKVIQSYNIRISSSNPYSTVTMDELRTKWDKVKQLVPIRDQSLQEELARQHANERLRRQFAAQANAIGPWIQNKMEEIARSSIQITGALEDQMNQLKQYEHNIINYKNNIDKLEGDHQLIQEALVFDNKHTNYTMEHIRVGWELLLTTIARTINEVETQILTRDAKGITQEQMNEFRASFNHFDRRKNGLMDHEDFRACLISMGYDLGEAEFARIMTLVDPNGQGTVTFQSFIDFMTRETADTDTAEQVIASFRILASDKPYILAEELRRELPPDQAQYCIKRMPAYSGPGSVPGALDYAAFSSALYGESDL
Sequence of α-actinin-2 (human) (P35609 whole entry): as above
Sequence of hd-α-actinin-2 (human) (P35609 19-894): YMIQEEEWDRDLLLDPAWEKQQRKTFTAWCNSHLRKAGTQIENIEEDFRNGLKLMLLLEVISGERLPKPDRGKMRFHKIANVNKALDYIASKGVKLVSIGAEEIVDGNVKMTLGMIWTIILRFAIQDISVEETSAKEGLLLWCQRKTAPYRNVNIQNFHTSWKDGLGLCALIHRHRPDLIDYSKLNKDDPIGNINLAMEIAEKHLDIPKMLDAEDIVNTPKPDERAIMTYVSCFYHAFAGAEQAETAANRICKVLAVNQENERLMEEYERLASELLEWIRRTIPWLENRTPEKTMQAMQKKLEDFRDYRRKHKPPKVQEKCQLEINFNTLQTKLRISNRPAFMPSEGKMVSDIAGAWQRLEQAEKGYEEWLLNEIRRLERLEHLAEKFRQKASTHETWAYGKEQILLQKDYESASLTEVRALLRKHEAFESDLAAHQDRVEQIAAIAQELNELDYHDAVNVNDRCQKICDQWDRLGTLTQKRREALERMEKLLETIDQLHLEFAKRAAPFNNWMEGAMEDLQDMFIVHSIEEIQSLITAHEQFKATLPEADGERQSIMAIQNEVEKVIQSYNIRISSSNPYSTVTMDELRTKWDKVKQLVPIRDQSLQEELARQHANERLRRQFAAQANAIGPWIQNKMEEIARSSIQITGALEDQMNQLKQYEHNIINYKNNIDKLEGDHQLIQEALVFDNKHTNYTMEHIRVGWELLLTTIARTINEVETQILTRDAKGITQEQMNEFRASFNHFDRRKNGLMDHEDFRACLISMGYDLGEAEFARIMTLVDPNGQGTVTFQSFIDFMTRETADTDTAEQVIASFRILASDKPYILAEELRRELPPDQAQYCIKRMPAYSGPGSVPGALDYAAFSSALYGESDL
Sequence of α-actinin-2-yellow fluorescent protein (YFP) (P35609 whole entry): as the sequence (P35609 whole entry) above
Sequence of rod-α-actinin-2 (P35609 274-746): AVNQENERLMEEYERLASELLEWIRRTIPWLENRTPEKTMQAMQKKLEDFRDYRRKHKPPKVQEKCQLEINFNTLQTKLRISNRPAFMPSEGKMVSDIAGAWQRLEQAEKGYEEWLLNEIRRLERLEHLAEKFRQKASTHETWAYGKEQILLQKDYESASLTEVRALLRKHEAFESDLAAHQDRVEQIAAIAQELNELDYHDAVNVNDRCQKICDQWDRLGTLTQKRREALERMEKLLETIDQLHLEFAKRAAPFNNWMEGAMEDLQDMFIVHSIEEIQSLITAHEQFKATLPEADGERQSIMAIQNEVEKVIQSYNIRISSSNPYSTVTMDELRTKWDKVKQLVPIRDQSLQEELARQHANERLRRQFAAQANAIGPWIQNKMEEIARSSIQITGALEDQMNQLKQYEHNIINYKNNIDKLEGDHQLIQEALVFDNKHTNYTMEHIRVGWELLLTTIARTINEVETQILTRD
Sequence of human (nonmuscle) α-actinin-1 (P12814 whole entry): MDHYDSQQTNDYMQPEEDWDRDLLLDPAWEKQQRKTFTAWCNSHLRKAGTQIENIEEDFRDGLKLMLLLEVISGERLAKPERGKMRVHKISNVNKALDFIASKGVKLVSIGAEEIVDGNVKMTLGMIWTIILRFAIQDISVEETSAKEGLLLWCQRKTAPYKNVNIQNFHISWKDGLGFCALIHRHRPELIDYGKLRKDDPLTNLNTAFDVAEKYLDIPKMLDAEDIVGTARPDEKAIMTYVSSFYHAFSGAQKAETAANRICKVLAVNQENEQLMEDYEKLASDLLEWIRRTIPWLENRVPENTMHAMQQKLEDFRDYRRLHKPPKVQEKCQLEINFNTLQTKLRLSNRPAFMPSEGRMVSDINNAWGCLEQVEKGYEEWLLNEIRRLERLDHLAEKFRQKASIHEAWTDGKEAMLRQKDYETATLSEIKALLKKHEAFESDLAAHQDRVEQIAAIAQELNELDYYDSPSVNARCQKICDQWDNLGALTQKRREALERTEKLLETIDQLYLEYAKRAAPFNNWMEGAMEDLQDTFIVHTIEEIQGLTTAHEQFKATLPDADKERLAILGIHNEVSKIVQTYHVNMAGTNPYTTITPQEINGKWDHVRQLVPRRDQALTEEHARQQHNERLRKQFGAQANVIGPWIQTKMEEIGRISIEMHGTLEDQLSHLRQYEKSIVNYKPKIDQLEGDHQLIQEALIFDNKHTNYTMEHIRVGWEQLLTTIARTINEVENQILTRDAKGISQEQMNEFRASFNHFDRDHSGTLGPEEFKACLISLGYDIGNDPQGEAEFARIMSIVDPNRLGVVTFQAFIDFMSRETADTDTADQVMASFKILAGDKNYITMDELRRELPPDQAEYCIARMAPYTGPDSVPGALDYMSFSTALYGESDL

B1: FATZ-2 (natural protein, human, UniProt Q9NPC6 1-264, looked up)
chain: MLSHNTMMKQRKQQATAIMKEVHGNDVDGMDLGKKVSIPRDIMLEELSHLSNRGARLFKMRQRRSDKYTFENFQYQSRAQINHSIAMQNGKVDGSNLEGGSQQAPLTPPNTPDPRSPPNPDNIAPGYSGPLKEIPPEKFNTTAVPKYYQSPWEQAISNDPELLEALYPKLFKPEGKAELPDYRSFNRVATPFGGFEKASRMVKFKVPDFELLLLTDPRFMSFVNPLSGRRSFNRTPKGWISENIPIVITTEPTDDTTVPESEDL
stoichiometry N (α-actinin-2 [3]): 2 FATZ molecules per α-actinin-2 dimer

B2: ECFP-tagged FATZ-2 (WT) (natural protein, human, UniProt Q9NPC6 1-264, looked up)
chain: MLSHNTMMKQRKQQATAIMKEVHGNDVDGMDLGKKVSIPRDIMLEELSHLSNRGARLFKMRQRRSDKYTFENFQYQSRAQINHSIAMQNGKVDGSNLEGGSQQAPLTPPNTPDPRSPPNPDNIAPGYSGPLKEIPPEKFNTTAVPKYYQSPWEQAISNDPELLEALYPKLFKPEGKAELPDYRSFNRVATPFGGFEKASRMVKFKVPDFELLLLTDPRFMSFVNPLSGRRSFNRTPKGWISENIPIVITTEPTDDTTVPESEDL
FRET ratio [4]: 0.087

B3: FATZ-3 (natural protein, human, UniProt Q8TDC0 1-251, looked up)
chain: MIPKEQKGPVMAAMGDLTEPVPTLDLGKKLSVPQDLMMEELSLRNNRGSLLFQKRQRRVQKFTFELAASQRAMLAGSARRKVTGTAESGTVANANGPEGPNYRSELHIFPASPGASLGGPEGAHPAAAPAGCVPSPSALAPGYAEPLKGVPPEKFNHTAISKGYRCPWQEFVSYRDYQSDGRSHTPSPNDYRNFNKTPVPFGGPLVGGTFPRPGTPFIPEPLSGLELLRLRPSFNRVAQGWVRNLPESEEL
stoichiometry N (α-actinin-2 [3]): 2 FATZ molecules per α-actinin-2 dimer

B4: FATZ-1 (filamin-, α-actinin-, and telethonin-binding protein of the Z-disk) (natural protein, human, UniProt Q9NP98 1-299, looked up)
chain: MPLSGTPAPNKKRKSSKLIMELTGGGQESSGLNLGKKISVPRDVMLEELSLLTNRGSKMFKLRQMRVEKFIYENHPDVFSDSSMDHFQKFLPTVGGQLGTAGQGFSYSKSNGRGGSQAGGSGSAGQYGSDQQHHLGSGSGAGGTGGPAGQAGRGGAAGTAGVGETGSGDQAGGEGKHITVFKTYISPWERAMGVDPQQKMELGIDLLAYGAKAELPKYKSFNRTAMPYGGYEKASKRMTFQMPKFDLGPLLSEPLVLYNQNLSNRPSFNRTPIPWLSSGEPVDYNVDIGIPLDGETEEL
stoichiometry N (α-actinin-2 [3]): 2 FATZ molecules per α-actinin-2 dimer

B5: ECFP-tagged FATZ-1 (WT FATZ-1) (natural protein, human, UniProt Q9NP98 1-299, looked up)
chain: MPLSGTPAPNKKRKSSKLIMELTGGGQESSGLNLGKKISVPRDVMLEELSLLTNRGSKMFKLRQMRVEKFIYENHPDVFSDSSMDHFQKFLPTVGGQLGTAGQGFSYSKSNGRGGSQAGGSGSAGQYGSDQQHHLGSGSGAGGTGGPAGQAGRGGAAGTAGVGETGSGDQAGGEGKHITVFKTYISPWERAMGVDPQQKMELGIDLLAYGAKAELPKYKSFNRTAMPYGGYEKASKRMTFQMPKFDLGPLLSEPLVLYNQNLSNRPSFNRTPIPWLSSGEPVDYNVDIGIPLDGETEEL
FRET ratio [4]: 0.085

Molecule: PKYKSFNRTAMPYGGYEKASKRMTF (peptide, UniProt Q9NP98 216-240, looked up) [LM2 peptide]
Kd (α-actinin-2 [6]): 315 nM
stoichiometry N (α-actinin-2 [6]): 1.9

Molecule: KYKSFNRTAMPYGGY (peptide, UniProt Q9NP98 217-231, looked up) [FATZ-1 peptide comprising residues 217 to 231 (peptide array)]
binding result (α-actinin-2 [7]): binds

More lines, now with the values ahead:

Kd (α-actinin-2 (human)): 1500 nM
stoichiometry N (α-actinin-2 (human)): 1.3
Molecule: trx-Δ91-FATZ-1 (domain or fragment)

stoichiometry N (Δ91-FATZ-1 per hd-α-actinin-2) (hd-α-actinin-2 (human) [1]): 1
Kd (hd-α-actinin-2 (human) [2]): 260 nM
stoichiometry N (Δ91-FATZ-1 per hd-α-actinin-2) (hd-α-actinin-2 (human) [2]): 1
Molecule: Δ91-FATZ-1 (from UniProt Q9NP98 92-299) (domain or fragment)

Kd1 (two-site binding model, first binding event) (α-actinin-2 (human)): 7.8 nM
Kd2 (two-site binding model, second binding event) (α-actinin-2 (human)): 408 nM
Molecule: Δ91-FATZ-1-trx (domain or fragment)

stoichiometry N [5]: 2 Δ91-FATZ-1 per α-actinin-1 (2:1 complex)
stoichiometry N (α-actinin-2 [3]): 2 Δ91-FATZ-1 per α-actinin-2 dimer
stoichiometry N (rod-α-actinin-2): 2 Δ91-FATZ-1 per rod-α-actinin-2 dimer
dH (first binding event) (α-actinin-2 [6]): -111 kJ/mol
B6: Δ91-FATZ-1 (domain or fragment, human, UniProt Q9NP98 92-299, looked up)
chain: PTVGGQLGTAGQGFSYSKSNGRGGSQAGGSGSAGQYGSDQQHHLGSGSGAGGTGGPAGQAGRGGAAGTAGVGETGSGDQAGGEGKHITVFKTYISPWERAMGVDPQQKMELGIDLLAYGAKAELPKYKSFNRTAMPYGGYEKASKRMTFQMPKFDLGPLLSEPLVLYNQNLSNRPSFNRTPIPWLSSGEPVDYNVDIGIPLDGETEEL
